This data set in a line: label from the status in PepcDB records.
Consider “MLQMNLEELRRIQEEMSRSVVLEDLIPLEELEYVVGVDQAFISDEVVSCAVKLTFPELEVVDKAVRVEKVTFPYIPTFLMFREGEPAVNAVKGLVDDRAAIMVDGSGIAHPRRCGLATYIALKLRKPTVGITKKRLFGEMVEVEDGLWRLLDGSETIGYALKSCRRCKPIFISPGSYISPDSALELTRKCLKGYKLPEPIRIADKLTKEVKRELTPTSKLKLEHHHHHH”, for which the protein production entry is reported as “failed”.

On to “MLQNIPTHVIGGPLGAGKTSLIKRLLAQKPAHERWAVLINEFGQIGLDAALLTTTADGIALGEVAGGCLCCVNGVPFQIGLGRLLRKARPDRLLIEPSGLGHPAQLMAQLREAPWRGVLTVQPGVMVLDAAAMATGQPLPATQQEALAEAGLVVMNKSEQLDEAARQALAEQMKPCALLWTRHADLSLSRLPGFVEGTAVDKHAVDNLTLPNSIGRLPALWADPNVPICLSQTSAEGWSVGWRWHPSQQFDLQRVLHWLEGMAWRRAKVVIHSEGGWYSGNVLEGAPLAWQISEWRQDSRLELIFSAPQDVDTLQAQMAGCLA”, for which the protein production result was “failed”.

Turning to “MLQRLFIFLLIFLILPDIYLYLRFIVHLTAKRWLRILYWLPAFLLSAGLLYLVYFSNNAFAERHTQAIGWFSIFFFLFTAPKLLLSLCTIIGVPFHKWLRWPRTPFICTGLTLAVISIVMIIYGSFIGRTQFDVKEVTYSSPKLPSAFDGYRIVQLSDIHIGSWQGNASAIQKLVKLVNEQQADLIVFTGDLVNHRAVELNDFQDILAGLKAKDGVYSILGNHDYGPYFHWKSKDEQDDNLNDLLQRQAAMGWKLLNNSHTILIQGSDSIALIGVENEGEPPFSQYADLPEAMRGTEGMFQILLSHNPTHWRREVLPQTYIDLMLAGHTHAMQLKFGNHSPSSYIYPEWSGMYLEGTRGLYVNEGIGYVGLPFRFGAWPEITVLTLRQ”, the protein production entry is listed as “failed”. The value for “MLRHILTAKNLLSNPIFKFPNCLPFLSTVCCICRQFVGENLCSFADSPSLFEMWFHFLQLRSALNISSALRQVVHGTRWHAKRKSYKVLFWREITPLAVPIFMENACVLLMGVLSTFLVSWLGKDAMAGVGLADSFNMVIMAFFAAIDLGTTVVVAFSLGKRDRRRARVATRQSLVIMTLFAVLLATLIHHFGEQIIDFVAGDATTEVKALALTYLELTVLSYPAAAITLIGSGALRGAGNTKIPLLINGSLNILNIIISGILIYGLFSWPGLGFVGAGLGLTISRYIGAVAILWVLAIGFNPALRISLKSYFKPLNFSIIWEVMGIGIPASVESVLFTSGRLLTQMFVAGMGTSVIAGNFIAFSIAALINLPGSALGSASTIITGRRLGVGQIAQAEIQLRHVFWLSTLGLTAIAWLTAPFAGVMASFYTQDPQVKHVVVILIWLNALFMPIWSASWVLPAGFKGARDARYAMWVSMLSMWGCRVVVGYVLGIMLGWGVVGVWMGMFADWAVRAVLFYWRMVTGRWLWKYPRPEPQKCEKKPVVSE” was “failed”; that for “MLRLARKGLQTAVVRSYAKDVKFGAEGRQAMLVGVNLLADAVSVTMGPKGRNVIIEQSWGSPKITKDGVTVAKSIDLKDKYQNLGAKLIQDVANKANEEAGDGTTCATVLARAIAKEGFESIRQGGNAVEIRRGVMNAVEVVVAELKKISKKVTTPEEIAQVATISANGDTVVGNLISDAMKKVGTTGVITVKDGKTLNDELELIEGMKFDRGYISPYFITSAKGAKVEYEKALVLLSEKKISQVQDIVPALELANKLRRPLVIIAEDVDGEALTTLVLNRLKVGLQVVAIKAPGFGDNRKNTLKDMGIATGATIFGDDSNLIKIEDITANDLGEVDEVTITKDDTLLLRGRGDQTEIEKRIEHITDEIEQSTSDYEKEKLNERLAKLSKGVAVLKIGGGSEVEVGEKKDRVTDALCATRAAVEEGIVPGGGVALLRSLTALKNYKAANEDQQIGVNIVKKALTQPIATIVKNAGLEPSSIIDEVTGNSNTSYGYDALNGKFVDMFEAGIIDPTKVVRTALQDASGVASLLATTECVVTEIPKEEAVGGPAGGMGGMGGMGGMGGMGF” was “not failed”; that for “MLRNTSHSYGGIARALHWLCALAVIAALVFIELKGNFPKGDPLRSGLGYAHVQAGLIVLLLVLPRLAWRLGNPPPAIEPAPSPAMNLLAHAGHWALYALMLALPILGIAFIQANGREVALFGLALPAFMPNDPPLGKELKEIHELLGNVLLWLSILHAAAAVWHHRFLKDDTLTRLTGPMR” was “failed”.

Regarding “MLRRSFSSYLRQGLLLAFLAAFSALWLAQAHAERRAAIVVGNSEYPFAPLTNPRNDAKLIANTLTELKFDVLLFYDVKKSAEKDLNDAIRAHLIGADMAVFYYAGHALQYNGQNLLLPVDTRISSAKEVAADAMRLNDLIDIVKNDPVGVKVFILDACRNNPVAKEKGLQQGLAYTEAGSGQVLVAFATSAGEVAYDGTGINSPYSSALANALLMPNLDVYDTFRTVRGDVRQATGGSQIPWITGSIETKFVFRQGDAGKQVAQAEHAAEADGGLTIDEVLWSFISDSQNPEDFERFVKVFPNSRYAAEATEKSRFKVAALTKRGLYVNGNLVSSSIAATAPIGASDKALSEEFVFQQAGERAVSETFRIWPSNLPDTQRGMRTMVTDCDLYAADPNDPQRAVPGVTNGLVNVRDALRACAFALAADINNPRLQFQFGRVLEIARRYSWAEHFYELAGNQQYSAALINMGYMARVGMGREIDYGRAFDPYVRAAALGNLRARTDIGSAYIAGQGVPKLPEEGVLWYRLAASSGWANAITALGDAYRLGTGVKQDYVQAASLYSAAADTGQIDAMANLGQAYLAGEGVKKDVPRGLELLQRANDMGNRYAPYFMAQLYLKGDRKLPADPRRALALLELSANRGNEYAYVRLAWGHRDGVFTGGKPDLRRAYFDASLAARLRADQGEQAKAEIAKKIDPATRKEIDGEVELYIKQNGP”, the protein production entry is “failed”.

In the case of “MLRSSSVDRKREEEPRLSYMIARVDRIISKYLTEHLSALEISLPQFTALSVLAAKPNLSNAKLAERSFIKPQSANKILQDLLANGWIEKAPDPTHGRRILVTVTPSGLDKLNQCNQVVQQLEAQMLQGVDINLAFLIRNNLELMVKNLSTFSSLDQSKE”, the protein production entry is listed as “not failed”. The value for “MLRVFHFYGMLRLPRSGIEQSLKGERCTVSTQIRILPENLTNKIAAGEVVERPASVVKELVENSLDAGCRDIIVEIEAGGRRLIRVTDDGSGMSREDALLSLERHATSKIASDDDLFSLCTLGFRGEALPSIASVSRFSLATRQRGAIEGTEIYAEGGRIKEVKACGMAEGTVITVRNLFFNTPARLKFMKSAETEAGHVGDLLTRLAISRPEVRFTYVNDGKTVFRALNGTMEERVAALLGRTIAGALYPLDSTVEGVTVRGLVARPDVSRSAAGHLYTFINGRFIRDRVVQHAVLQAYRNFLERGRYPVVVLFIQVPAGDVDVNVHPTKHEVRFRQQGVVHDVIQGVIEEALRPTPWLRKESQSTVSSPPPERREPATSSERVAEVRELLVNYRPSPAPSRPFFQPLPAVVPAPDQSAEEPDRPMDRGYFSRLAIIGQFHASYILCQDGSDLVIIDQHAAHERVAFERLKAQFAAGGVEGQGLLFPDTLELSHREVAELREHGEELRRIGFDLDEFGGTTWVVKGVPRLLAGKDYLRILRDTLEEFQAVGANRSVADAVEEILTRIACHSVVRGEHPLTTAQIEALFAQMDATDYSTNCPHGRPVLQRLTLAEVERMFKR” was “failed”. The value for “MLRVLSVGVAFILLGCQFFNKTTLHLKYKDYPKNSALKTAFTLTPPKIFFNARFVPPFYQKEFKKAITQQIAYFLKDKSAFILNVSGNVFFSFEENPKDLKAIKERLKKTIEPNADPKAVMRFLNLQASLILECVPQTTCPFDTLLIPTAFSVPVYYANRLGDNPSLFSQEDKTYHNALIKALNKAYYSLMEGLEKRLNAIKNAEWL” was “failed”.

“MLRVVEVCWRESHMKVLAINSSPRMDKGNTALILNPFLEGMKEAGAEVELFYTKKLKISPCTGEFNCWLKTPGKCYQNDDMNILYPRIDAADVIVFATPVYVDGVTGQMKNFIDRMLPRVEPFVELRDGHCRHPVRGGPKALKFVLVSNCGFWEMDNFDSLLVFMKAFCKNASTEFAGALLRPHGEALSSMLEMGAPIDDVFEAAREVGRQLVKEGKMSQETLDIVSRELLPKEMYIQIANQTFRQCLESLDRLEHHHHHH”: the protein production entry was “failed”.

As for “MLSANQIKFLRSLRERKYRLREQAFAVEGPKLVGEMLPFYRCRMLVGTAAMLRAVSTPHDAEVVELPESFDFKRISTQTTPQPLMAVFDLPAEPEPVVEGLTLLLDGVQDPGNVGTILRTADWFGIRHVWLGTGSADVFSPKVVQASMGALARVQPTPLKNTVDTLAYFRRQGIPVYGAFLDGQSLYEAPLPNFTEPAILVLGSEGRGISPEVAAEITDRLTIPASGLSVKGHTESLNVAIATAILCSEWRRRS”, the protein production entry is “not failed”.

For the origin of these results see a protein production outcome set (Wang et al. 2014).
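Note: failed if final PepcDB status was selected cloned or expressed and not failed if soluble or beyond.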
